The record followed here is patent US20080058272A1, “Nonamer Peptides for Cancer Treatment” (priority 2006, published 2008).

In this test the target is T1, HLA-A2 (human), P04439.
T1 chain: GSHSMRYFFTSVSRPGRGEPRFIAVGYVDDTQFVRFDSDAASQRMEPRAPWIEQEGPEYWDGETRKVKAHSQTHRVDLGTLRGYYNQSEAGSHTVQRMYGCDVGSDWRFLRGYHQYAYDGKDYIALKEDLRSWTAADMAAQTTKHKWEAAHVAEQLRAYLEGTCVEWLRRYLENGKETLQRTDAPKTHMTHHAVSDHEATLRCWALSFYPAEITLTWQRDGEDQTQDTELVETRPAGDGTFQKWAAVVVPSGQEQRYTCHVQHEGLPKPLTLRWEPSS
As to the kind of experiment: competitive binding assay (flow cytometry). As to conditions: modification not given.

Turning to ALVCYGPGV [FAPα463-471 (471V) (…)], the IC50 was found to be 4.6 µM. That is a single-digit micromolar value.
In the case of ALVCYGPGL [FAPα463-471 (471L) (…)], the IC50 was determined as 3.9 µM. The IC50 values of the last two molecules are within 1.5-fold of each other.
With KLLEENKEV [FAPα486-494 (487L, 494V) (…)], the IC50 was 25.4 µM.
The molecule KLLEENKEL [FAPα486-494 (487L) (…)] returned an IC50 of 21.3 µM. The IC50 values of the last two molecules are within 1.5-fold of each other.
ALLVMCIVL [FAPα18-26 (…)] gave an IC50 of 650 µM.
VLALLVMCI [FAPα16-24 (…)] yielded a concentration for half-maximal inhibition (IC50) of 150 µM.
